Assay [1] deals with full length wild-type human VEGFR-2 (human) (UniProt P35968).
The target of assay [2] is VEGFR-2 EC+TM-(GGS)5-YFP or -mCherry (human) (UniProt P35968).
For assay [3], the target named is VEGFR-2 EC(C482R)+TM(N762I-V769I-G770I)-(GGS)5-YFP or -mCherry (human) (UniProt P35968). Kind of assay: FRET or BRET; QI-FRET between YFP- and mCherry-tagged copies in single plasma membrane-derived vesicles of co-transfected CHO cells, no ligand; monomer-dimer equilibrium model, dimer to monomers; two-dimensional concentrations (receptors per square micron).
For assay [4], the target named is VEGFR-2 EC(C482R)+TM-(GGS)5-YFP or -mCherry (human) (UniProt P35968). Kind of assay: FRET or BRET; QI-FRET in CHO plasma membrane-derived vesicles with 3 ug/ml VEGF-A121, 1 hr at room temperature.
Assay [5] has the same target. Kind of assay: FRET or BRET; QI-FRET between YFP- and mCherry-tagged copies in single plasma membrane-derived vesicles of co-transfected CHO cells, no ligand; monomer-dimer equilibrium model, dimer to monomers; two-dimensional concentrations (receptors per square micron). In general terms: Bioluminescence resonance energy transfer reports proximity on the nanometre scale.

The target of assay [6] is VEGFR-2 EC+TM(E764I-T771I-F778I)-(GGS)5-YFP or -mCherry (human) (UniProt P35968). Kind of assay: FRET or BRET; QI-FRET in CHO plasma membrane-derived vesicles with 3 ug/ml VEGF-A121, 1 hr at room temperature.
The target is the same in assay [7]. Nature of the assay: FRET or BRET; QI-FRET between YFP- and mCherry-tagged copies in single plasma membrane-derived vesicles of co-transfected CHO cells, no ligand; monomer-dimer equilibrium model, dimer to monomers; two-dimensional concentrations (receptors per square micron).
Assay [8] has as its target VEGFR-2 EC+TM(N762I-V769I-G770I)-(GGS)5-YFP or -mCherry (human) (UniProt P35968). Nature of the assay: FRET or BRET; QI-FRET in CHO plasma membrane-derived vesicles with 3 ug/ml VEGF-A121, 1 hr at room temperature.
For assay [9], the target named is VEGFR-2 EC+TM-(GGS)5-YFP or -mCherry (human) (UniProt P35968). Kind of assay: FRET or BRET; QI-FRET in CHO plasma membrane-derived vesicles with 3 ug/ml VEGF-A165a, 1 hr at room temperature.
Assay [10] has the same target. Nature of the assay: FRET or BRET; QI-FRET in CHO plasma membrane-derived vesicles with 3 ug/ml VEGF-C, 1 hr at room temperature.
Assay [11] shares this target. Nature of the assay: FRET or BRET; QI-FRET in CHO plasma membrane-derived vesicles with 3 ug/ml VEGF-E, 1 hr at room temperature.
Assay [12] shares this target. Nature of the assay: FRET or BRET; QI-FRET in CHO plasma membrane-derived vesicles with 3 ug/ml VEGF-D, 1 hr at room temperature.
Assay [13] shares this target. Kind of assay: FRET or BRET; QI-FRET in CHO plasma membrane-derived vesicles with 3 ug/ml VEGF-A121, 1 hr at room temperature.
Assay [14] has the same target. Nature of the assay: FRET or BRET; QI-FRET in CHO plasma membrane-derived vesicles with 3 ug/ml VEGF-A165b, 1 hr at room temperature.

VEGF-E (ligand) had a phosphorylation of full-length VEGFR-2 (Tyr 1175, Western blot) with 3 ug/ml ligand against no ligand in assay [1] below 10 fold. In assay [2], this substance came in with an Intrinsic FRET of the EC+TM dimer (YFP/mCherry) with 3 ug/ml ligand; 0.61 without ligand of 0.44.

For the substance “VEGFR-2 EC(C482R)+TM(N762I-V769I-G770I)-(GGS)5-YFP or -mCherry (from UniProt P35968 20-1356) (domain or fragment)”, the percent dimer in assay [3] was determined as 100%.

Regarding “VEGFR-2 EC(C482R)+TM-(GGS)5-YFP or -mCherry (from UniProt P35968 20-1356) (domain or fragment)”, the percent dimer in assay [4] and in assay [5] was 100% each time.

Consider “VEGFR-2 EC+TM(E764I-T771I-F778I)-(GGS)5-YFP or -mCherry (from UniProt P35968 20-1356) (domain or fragment)”, for which the percent dimer in [6] and in assay [7] was 100% each time.

In assay [8], “VEGFR-2 EC+TM(N762I-V769I-G770I)-(GGS)5-YFP or -mCherry (from UniProt P35968 20-1356) (domain or fragment)” registered a percent dimer of 100%.

“VEGFR-2 EC+TM-(GGS)5-YFP or -mCherry (from UniProt P35968 20-1356) (domain or fragment)”: the percent dimer in assay [9], in [10], in assay [11], in [12], in assay [13] and in [14] was 100% in each case.

In assay [1], “human VEGF-C (from UniProt P49767 112-227) (ligand)” yielded a phosphorylation of full-length VEGFR-2 (Tyr 1175, Western blot) with 3 ug/ml ligand against no ligand below 10 fold. The Intrinsic FRET of the EC+TM dimer (YFP/mCherry) with 3 ug/ml ligand; 0.61 without ligand in [2] turned out to be 0.45.

On to “human VEGF-D (from UniProt O43915 89-205) (ligand)”, for which the phosphorylation of full-length VEGFR-2 (Tyr 1175, Western blot) with 3 ug/ml ligand against no ligand in [1] was below 10 fold. The same substance returned an Intrinsic FRET of the EC+TM dimer (YFP/mCherry) with 3 ug/ml ligand; 0.61 without ligand in assay [2] of 0.43.

(Values after publication PMC4829425.)
